The target of this experiment is mouse TRPV3 with the single residue substitution Y564A (mouse). As to the kind of experiment: cryo-EM structure.

The values that follow come from paper PMC6858569.

Usually stoichiometry N stands for a count of units in the complex or per binding partner.

“mouse TRPV3 with the single residue substitution Y564A (natural protein)” registered a stoichiometry N of 4.
